Data on one substance can be found in patent US20180120302A1.

By kon is commonly meant a measure of how fast the partners come together. The low end stands for slower complex formation, the high end for faster complex formation. Broadly, the koff is a measure of how fast the partners let go of each other. A higher koff goes with a short-lived complex. Usually Kd stands for the equilibrium constant for the complex coming apart.

Assay [1] deals with T4L-D70N (UniProt P00720). The experiment in a line: BSI, global analysis, kf1 (high affinity mode), 25° C., pH 8.0.
Assay [2] deals with T4L-L99A-A130S (UniProt P00720). The description is as above.
Assay [3] concerns the target T4L-D70N (UniProt P00720). In words: BSI corrected steady-state data, 25° C., pH 8.0.
The target in assay [4] is T4L-D70N (UniProt P00720). The experiment in a line: BSI, global analysis, row printed kr1 but read as kr2 (low affinity mode), 25° C., pH 8.0.
The target in assay [5] is T4L-L99A-A130S (UniProt P00720). The assay is described as above.
Assay [6] has as its target T4L-D70N (UniProt P00720). The experiment in a line: BSI, global analysis, KD2 (low affinity mode), 25° C., pH 8.0.
Assay [7] has as its target T4L-L99A-A130S (UniProt P00720). The description is as above.
Assay [8] concerns the target T4L-D70N (UniProt P00720). The experiment in a line: BSI, global analysis, kr1 (high affinity mode), 25° C., pH 8.0.
Assay [9] has as its target T4L-L99A-A130S (UniProt P00720). Described as above.
The target in assay [10] is T4L-D70N (UniProt P00720). In words: BSI, global analysis, KD1 (high affinity mode), 25° C., pH 8.0.
Assay [11] concerns the target T4L-L99A-A130S (UniProt P00720). Described as above.
Assay [12] shares this target. The experiment in a line: BSI, global analysis of kinetic traces.
In assay [13] the target is T4L-D70N (UniProt P00720). In words: BSI, global analysis, kf2 (low affinity mode), 25° C., pH 8.0.
Assay [14] concerns the target T4L-L99A-A130S (UniProt P00720). Described as above.
In assay [15] the target is T4L-L99A (UniProt P00720). The experiment in a line: Fluorescence, KD2 (low affinity mode), T = 37° C. and pH = 7.2.
Assay [16] concerns the target T4L-L99A (UniProt P00720). In words: Fluorescence, KD1 (high affinity mode), T = 37° C. and pH = 7.2.
For assay [17], the target named is T4L-L99A (UniProt P00720). The experiment in a line: BSI steady-state, KD2 (low affinity mode), T = 37° C. and pH = 7.2.
Assay [18] addresses T4L-L99A (UniProt P00720). The experiment in a line: ITC, KD2 (low affinity mode), T = 37° C. and pH = 7.2. In general terms: In ITC the heat of successive injections is recorded.
Assay [19] has as its target T4L-L99A (UniProt P00720). In words: BSI steady-state, KD1 (high affinity mode), T = 37° C. and pH = 7.2.
The target in assay [20] is T4L-L99A (UniProt P00720). The experiment in a line: ITC, KD1 (high affinity mode), T = 37° C. and pH = 7.2.

Chain of αB-D3 (αB-crystallin with serine residues 19, 45 and 59 mutated to aspartic acids) (P02511 other isoform, or with tags, fused parts or gaps limits assumed, change not shown): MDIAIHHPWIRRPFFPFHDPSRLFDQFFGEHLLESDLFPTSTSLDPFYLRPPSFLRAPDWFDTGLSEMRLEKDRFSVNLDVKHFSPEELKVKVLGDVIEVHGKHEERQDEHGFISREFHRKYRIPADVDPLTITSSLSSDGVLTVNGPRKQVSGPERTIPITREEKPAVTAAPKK

Take “αB-D3 (αB-crystallin with serine residues 19, 45 and 59 mutated to aspartic acids) (from UniProt P02511 1-175)”: the association rate constant (kon) came out at 25500 M⁻¹ s⁻¹ with T4L-D70N [1], 58500 M⁻¹ s⁻¹ with T4L-L99A-A130S [2], 2340 M⁻¹ s⁻¹ with T4L-D70N [13] and 2970 M⁻¹ s⁻¹ with T4L-L99A-A130S [14]. In the assay with T4L-D70N [3], this substance came in with a reduction in the magnitude of the BSI signal relative to L99A/A130S of 40%. The koff with T4L-D70N [4] worked out at 0.0682 s⁻¹; in the assay with T4L-L99A-A130S [5] it was 0.115 s⁻¹; with T4L-D70N [8] it was 0.0152 s⁻¹; in the assay with T4L-L99A-A130S [9], 5.03e-06 s⁻¹. The dissociation constant (Kd) is 29100 nM with T4L-D70N [6]; 33000 nM with T4L-L99A-A130S [7]; 595 nM in the assay with T4L-D70N [10]; 132 nM with T4L-L99A-A130S [11]; 1000 nM with T4L-L99A [15]; 20 nM with T4L-L99A [16]. Moreover, the Kd with T4L-L99A [17] is 3110 nM; with T4L-L99A [18] it was 2440 nM; in the assay with T4L-L99A [19], 1 nM; in the assay with T4L-L99A [20] it was 15 nM. The fold increase of affinity in the high affinity mode relative to D70N with T4L-L99A-A130S [12] is 4 fold.
